Data published in patent publication US11499162B2, “Plants having increased tolerance to herbicides” (BASF SE, priority 2016, dated 2022).
Numbering of substitutions follows the chain as printed. Names may count otherwise.

B1: L92AY93LM155TF157L: mutated TriA variant of SEQ ID NO: 2 (protein)
chain: MQTLSIQHGTLVTMDQYRRVLGDSWVHVQDGRIVALGVHAESVPPPADRVIDARGKVVLPGFINAHTHVNQILLRGGPSHGRQLYDWLFNVALPGQKAMRPEDVAVAVRLYCAEAVRSGITTINDNADSAIYPGNIEAAMAVYGEVGVRVVYARTFLDRMDGRIQGYVDALKARSPQVELCSIMEETAVAKDRITALSDQYHGTAGGRISVWPAPAITPAVTVEGMRWAQAFARDRAVMWTLHMAESDHDERLHWMSPAEYMECYGLLDERLQVAHCVYFDRKDVRLLHRHNVKVASQVVSNAYLGSGVAPVPEMVERGMAVGIGTDDGNCNDSVNMIGDMKFMAHIHRAVHRDADVLTPEKILEMATIDGARSLGMDHEIGSIETGKRADLILLDLRHPQTTPHHHLAATIVFQAYGNEVDTVLIDGNVVMENRRLSFLPPERELAFLEEAQSRATAILQRANMVANPAWRSL
modifications: Pseudomonas
B2: N70VQ71L92VM155AF157A: mutated TriA variant of SEQ ID NO: 2 (protein)
chain: B1 chain with N70V, Q71L, A92V, L93Y, T155A, L157A
modifications: Pseudomonas
B3: N70VD128TM155V: mutated TriA variant of SEQ ID NO: 2 (protein)
chain: B1 chain with N70V, A92L, L93Y, D128T, T155V, L157F
modifications: Pseudomonas
B4: N70LQ71LF157A: mutated TriA variant of SEQ ID NO: 2 (protein)
chain: B1 chain with N70L, Q71L, A92L, L93Y, T155M, L157A
modifications: Pseudomonas
B5: Q71LV91A: mutated TriA variant of SEQ ID NO: 2 (protein)
chain: B1 chain with Q71L, V91A, A92L, L93Y, T155M, L157F
modifications: Pseudomonas
B6: Y85LL88AF89AL92AY93LQ96TD128GM155VF157L: mutated TriA variant of SEQ ID NO: 2 (protein)
chain: B1 chain with Y85L, L88A, F89A, Q96T, D128G, T155V
modifications: Pseudomonas
B7: W87FL92AY93LF157L: mutated TriA variant of SEQ ID NO: 2 (protein)
chain: B1 chain with W87F, T155M
modifications: Pseudomonas
B8: M155L: mutated TriA variant of SEQ ID NO: 2 (protein)
chain: B1 chain with A92L, L93Y, T155L, L157F
modifications: Pseudomonas
B9: L88AL92AY93LF157L: mutated TriA variant of SEQ ID NO: 2 (protein)
chain: B1 chain with L88A, T155M
modifications: Pseudomonas
B10: D128P: mutated TriA variant of SEQ ID NO: 2 (protein)
chain: B1 chain with A92L, L93Y, D128P, T155M, L157F
modifications: Pseudomonas
B11: N70VD128SM155V: mutated TriA variant of SEQ ID NO: 2 (protein)
chain: B1 chain with N70V, A92L, L93Y, D128S, T155V, L157F
modifications: Pseudomonas
B12: N70IQ71IF157A: mutated TriA variant of SEQ ID NO: 2 (protein)
chain: B1 chain with N70I, Q71I, A92L, L93Y, T155M, L157A
modifications: Pseudomonas
B13: D128V: mutated TriA variant of SEQ ID NO: 2 (protein)
chain: B1 chain with A92L, L93Y, D128V, T155M, L157F
modifications: Pseudomonas
B14: N70IQ71L92VM155AF157A: mutated TriA variant of SEQ ID NO: 2 (protein)
chain: B1 chain with N70I, Q71L, A92V, L93Y, T155A, L157A
modifications: Pseudomonas
B15: L88VL92I: mutated TriA variant of SEQ ID NO: 2 (protein)
chain: B1 chain with L88V, A92I, L93Y, T155M, L157F
modifications: Pseudomonas
B16: L88VL92VF157A: mutated TriA variant of SEQ ID NO: 2 (protein)
chain: B1 chain with L88V, A92V, L93Y, T155M, L157A
modifications: Pseudomonas
B17: W87AL92AY93LF157L: mutated TriA variant of SEQ ID NO: 2 (protein)
chain: B1 chain with W87A, T155M
modifications: Pseudomonas
B18: N70VM155V: mutated TriA variant of SEQ ID NO: 2 (protein)
chain: B1 chain with N70V, A92L, L93Y, T155V, L157F
modifications: Pseudomonas
B19: N70LQ71ID128IM155V: mutated TriA variant of SEQ ID NO: 2 (protein)
chain: B1 chain with N70L, Q71I, A92L, L93Y, D128I, T155V, L157F
modifications: Pseudomonas
B20: L92AY93LF157L: mutated TriA variant of SEQ ID NO: 2 (protein)
chain: B1 chain with T155M
modifications: Pseudomonas
B21: Y85LL88AF89AL92AY93VQ96TD128GM155VF157L: mutated TriA variant of SEQ ID NO: 2 (protein)
chain: B1 chain with Y85L, L88A, F89A, L93V, Q96T, D128G, T155V
modifications: Pseudomonas
B22: Q96V: mutated TriA variant of SEQ ID NO: 2 (protein)
chain: B1 chain with A92L, L93Y, Q96V, T155M, L157F
modifications: Pseudomonas
B23: N70LQ71ID128IM155VF157L: mutated TriA variant of SEQ ID NO: 2 (protein)
chain: B1 chain with N70L, Q71I, A92L, L93Y, D128I, T155V
modifications: Pseudomonas
B24: D128G: mutated TriA variant of SEQ ID NO: 2 (protein)
chain: B1 chain with A92L, L93Y, D128G, T155M, L157F
modifications: Pseudomonas
B25: W87HL92AY93LF157L: mutated TriA variant of SEQ ID NO: 2 (protein)
chain: B1 chain with W87H, T155M
modifications: Pseudomonas
B26: L88VL92V: mutated TriA variant of SEQ ID NO: 2 (protein)
chain: B1 chain with L88V, A92V, L93Y, T155M, L157F
modifications: Pseudomonas
B27: F157T: mutated TriA variant of SEQ ID NO: 2 (protein)
chain: B1 chain with A92L, L93Y, T155M, L157T
modifications: Pseudomonas
B28: L88VL92IF157V: mutated TriA variant of SEQ ID NO: 2 (protein)
chain: B1 chain with L88V, A92I, L93Y, T155M, L157V
modifications: Pseudomonas

Format: biochemical
Conditions: pH 7.2
Procedure, shortened: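 % degradation measured against empty-vector control by UPLC-HR-MS, with product identity confirmed by exact mass and MS-MS. Conditions: 25 mM sodium phosphate pH 7.2, 30 °C, substrates at 1–10 nM. Enzyme source: TriA-expressing E. coli resting cells incubated with azines, melamine or atrazine.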

Molecule	Degradation in % of 6-cyclopentyl-N4-(2,3,4,5,6-pentafluorophenyl)-1,3,5-triazine-2,4-diamine	Degradation in % of Melamine
B1	99%	41%
B2	1%	0%
B3	1%	4%
B4	0%	2%
B5	0%	0%
B6	13%	1%
B7	99%	1%
B8	0%	4%
B9	99%	1%
B10	0%	0%
B11	0%	0%
B12	3%	0%
B13	2%	0%
B14	1%	0%
B15	0%	8%
B16	0%	0%
B17	12%	3%
B18	0%	0%
B19	0%	9%
B20	97%	43%
B21	13%	6%
B22	0%	4%
B23	0%	3%
B24	0%	0%
B25	18%	0%
B26	0%	0%
B27	0%	60%
B28	0%	5%
